Source: patent US20250290928A1, “METHOD, KIT AND DEVICE FOR DETECTING EXTRACELLULAR VESICLES” (priority 2022, published 2025)
No end group written: not given here. *: point of attachment. 5FAM = O=C1OC2(c3ccc(O)cc3Oc3cc(O)ccc32)c2ccc(C(=O)*)cc21; TQ2 = quencher

Legend:
[1] = molecular target: T1, MMP14 in the MDA-MB-231-derived extracellular vesicles (Homo sapiens, UniProt P50281); assay: Digital detection of MDA-MB-231-derived extracellular vesicles through MMP14 activity in wells (microcompartments); assay type: biochemical; conditions: for Extracellular vesicle concentration: at a concentration of x1, 50 fL; for Expected value λ / Number of positives / Positive ratio: Example 38, EV 2.5 μg/mL, reporter 5 μM, 30° C.
T1 construct: in terms of intact MMP14 with a molecular weight of 70 kDa
Protocol: The concentration of the solution is 6.7 μg/mL.
100 μL of the MMP14 detection solution was added to 100 μL of the sample to provide a reaction solution for wells. […] 100 μL of 200 μL of the prepared reaction solution for wells was used in the measurement of MMP14 activity with a 96-well plate.
Next, the wells were filled with the reaction solution by leaving the well array 200 to stand under reduced pressure to degas the space 205. After that, the space 205 was fed with hydrophobic solvents to be sealed. Fluorinated oils AsahiKlin AE-3000 (manufactured by AGC Inc.) and Fomblin Y-25 (manufactured by Solvay S.A.) were used as the hydrophobic solvents. A fluorinated oil Simoa (trademark) SR-X Sealing Oil: 102767 (manufactured by Quanterix Corporation) was further used as another hydrophobic solvent.
Well diameter: 4.25 μm Well depth: 3.25 μm Well capacity: 50 fL Number of wells in array: 239,000 Array range: 3 mm×4 mm
The concentration of the solution is 20 μg/mL. […] The concentration of the solution was set to x1, and 10-fold serial dilution was performed to prepare standard samples with five concentrations.
Next, the wells were filled with the reaction solution by leaving the well array 200 to stand under reduced pressure to degas the space 205. After that, the space 205 was fed with hydrophobic solvents to be sealed.
The concentration of the solution is 20 μg/mL. […] The concentration of the solution was set to x1, and 3-fold serial dilution was performed to prepare standard samples with three concentrations.
The concentration of the solution is 20 μg/mL. […] The concentration of the solution was set to x1, and 2-fold serial dilution was performed to prepare standard samples with four concentrations.
The concentration of the solution is 5 μg/mL.
50 μL of the MMP14 detection solution was added to 50 μL of the sample to provide a reaction solution for wells.
50 μL of each of the MMP14 detection solutions was added to 50 μL of the sample to provide a reaction solution for wells.
The concentration of the solution is 6.7 µg/mL.

[2] = molecular target: T1, MMP14 in the MDA-MB-231-derived extracellular vesicles; assay: Evaluation of MMP14 activity of MDA-MB-231-derived extracellular vesicles with 96-well plate; assay type: biochemical
Protocol: A relative fluorescence unit difference ΔRFU was calculated by subtracting the measured value of the sample for BG measurement from the measured value of each of the samples.
The concentration of the solution is 41.7 μg/mL. The concentration of the solution was set to x1, and 2-fold serial dilution was performed to prepare standard samples with six concentrations.
50 μL of the MMP14 detection solution was added to 50 μL of each of the samples, a reaction was performed at 37° C., and MMP14 activity was evaluated.
The concentration of the solution is 10 μg/mL.
50 μL of each of the MMP14 detection solutions was added to 50 μL of each of the samples, a reaction was performed at 37° C., and MMP14 activity was evaluated. […]
The concentration of the solution is 20 μg/mL. The concentration of the solution was set to x1, and 3-fold serial dilution was performed to prepare standard samples with three concentrations.
The concentration of the solution is 8 μg/mL.
50 μL of each of the MMP14 detection solutions was added to 50 μL of the sample, a reaction was performed at 37° C., and MMP14 activity was evaluated. […]
50 μL of the MMP14 detection solution was added to 50 μL of each of the samples, a reaction was performed at 30° C., and MMP14 activity was evaluated.
The MMP14 activity of the extracellular vesicles was evaluated with a 96-well plate (137101). A fluorescence intensity was measured with a fluorescence plate reader (Synergy) at 30° C. every 5 minutes for 2 hours. For measurement wavelengths, an excitation wavelength of 545±20 nm and a fluorescence wavelength of 588±20 nm were used. A relative fluorescence unit difference (ΔRFU) was calculated by subtracting the measured value of the sample for BG measurement from the measured value of each of the samples.
50 μL of each of the MMP14 detection solutions was added to 50 μL of each of the samples, a reaction was performed at 30° C., and MMP14 activity was evaluated.

[3] = Example 37, EV 5 μg/mL, reporter 5 μM, buffer (4)
[4] = MP, 1.25 μM with 5 μM Custom #2TF3
[5] = MP, 2.5 μM with 2.5 μM Custom #2TF3

| Substance | Expected value λ (×1) ([1]; Example 38, 4 hr) | Extracellular vesicle concentration ([1]; Example 38, 4 hr) [mL⁻¹] | Expected value λ (×1) ([1]; Example 38, 24 hr) | Extracellular vesicle concentration ([1]; Example 38, 24 hr) [mL⁻¹] | Expected value λ ([1]; 4 hr) | Number of positives ([1]; 4 hr) | Positive ratio ([1]; 4 hr) | Expected value λ ([1]; 24 hr) | Number of positives ([1]; 24 hr) | Positive ratio ([1]; 24 hr) | Fluorescence change after 2 hours of reaction at 30° C. [2, 3] | Fluorescence change after 2 hours of reaction at 30° C. [2, 4] | Fluorescence change after 2 hours of reaction at 30° C. [2, 5] |
| --- | --- | --- | --- | --- | --- | --- | --- | --- | --- | --- | --- | --- | --- |
| TQ2-LAPLGLQRRK(5-FAM) (TQ2-LAPLGLQRRK(5FAM)) [Custom #11] | 0.5433 | 1.087e+10 | 1.166 | 2.3319e+10 | 0.1358 | 3,566 | 0.127 | 0.2915 | 7,100 | 0.2529 | 33,665 ΔRFU | 12,156 ΔRFU | 18,065 ΔRFU |
| TQ2-YPPRPLLARK(5-FAM) (TQ2-YPPRPLLARK(5FAM)) [Custom #15] | 0.4993 | 9.986e+09 | 1.145 | 2.289e+10 | 0.1248 | 3,295 | 0.1173 | 0.2862 | 6,988 | 0.2489 | 16,774 ΔRFU | 9,131 ΔRFU | 10,890 ΔRFU |
| TQ2-WYPAGLRMVK(5-FAM) (TQ2-WYPAGLRMVK(5FAM)) [Custom #13] | 0.5455 | 1.091e+10 | 1.05 | 2.101e+10 | 0.1364 | 3,573 | 0.1275 | 0.2626 | 6,485 | 0.2309 | 19,279 ΔRFU | 7,073 ΔRFU | 9,939 ΔRFU |
| TQ2-DLPAGLQARK(5-FAM) (TQ2-DLPAGLQARK(5FAM)) [Custom #14] | 0.9841 | 1.968e+10 | 1.5709 | 3.142e+10 | 0.246 | 6,120 | 0.2181 | 0.3927 | 9,120 | 0.3248 | 34,878 ΔRFU | 9,504 ΔRFU | 14,104 ΔRFU |
